According to the supplement of paper PMC9732359:
± gives the uncertainty stated by the source.

Assay: protein stability index of a GFP-peptide fusion (yeast GPS) (PSI 1-4); higher = more stable; sorted into four equal gates, so the index is relative within each strain
Summary of the method: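 Plasmids isolated from each sorting gate were PCR-amplified and Illumina-sequenced, and barcodes assigned the reads to strains. The gates, four of equal size, were set by GFP/Cherry fluorescence ratio on mid-log cultures in leucine-free medium. These cultures were yeast carrying a pooled library of tiled 17-residue yeast protein peptides fused downstream of GFP on a plasmid that also expresses Cherry. The protein stability index is the sum of every gate's read frequency times its gate number.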

| Sequence | protein stability index (doa10∆) | protein stability index (pdr5∆) | protein stability index (san1∆) | protein stability index (ubr1∆) |
| --- | --- | --- | --- | --- |
| SGTAATGAASNQSSFNF [YOR098C/NUP1] | 2.7 ± 0.072 | 3.01 ± 0.09 | 2.68 ± 0.12 | 3.07 ± 0.053 |
| IPRTFRTPVPSTLMPGG [SNF5] | 2.68 ± 0.066 | 2.18 ± 0.05 | 2.44 ± 0.045 | 2.65 ± 0.048 |
| QRQDFERVRLRPEQLSN [SNF6] | 1.98 ± 0.05 | 2.43 ± 0.062 | 2.21 ± 0.064 | 2.25 ± 0.034 |
| ESFESYHNLTTHNSYEK [RPN6] | 3.19 ± 0.068 | 3.17 ± 0.065 | 2.84 ± 0.075 | 3.28 ± 0.044 |
| AVDLEHHDYRSYYGIVC [RRP6] | 2.5 ± 0.067 | 2.77 ± 0.049 | 2.37 ± 0.083 | 2.97 ± 0.038 |
| FLQSVDITGIRDVSDDV [GRR1] | 1.74 ± 0.041 | 2.12 ± 0.045 | 1.89 ± 0.055 | 1.69 ± 0.036 |
| KMVKAWNLNQFQIEADF [ASC1] | 2.58 ± 0.046 | 2.67 ± 0.053 | 2.58 ± 0.067 | 2.55 ± 0.04 |
| RSLEKVNNSVSKTGSVD [SSN2] | 2.38 ± 0.11 | 3.53 ± 0.15 | 3.36 ± 0.14 | 3.37 ± 0.11 |
| KKRNPSKQNGSKFHFSW [PRP28] | 2.78 ± 0.054 | 2.62 ± 0.05 | 2.52 ± 0.052 | 2.49 ± 0.038 |
| RDDGKRELLVEGYGLRD [RPO31] | 2.4 ± 0.079 | 2.56 ± 0.072 | 2.72 ± 0.077 | 2.74 ± 0.068 |
| VTRTQQWSMVAQRLQIS [SWI1] | 2.05 ± 0.051 | 1.89 ± 0.049 | 2.27 ± 0.07 | 2.06 ± 0.04 |
| AKDKEIYNKMIGVLNNS [RPN13] | 2.6 ± 0.084 | 2.94 ± 0.1 | 2.72 ± 0.053 | 2.93 ± 0.065 |
| ELSIRDVTHTLGMLDDN [SMC4] | 3.13 ± 0.091 | 3.04 ± 0.082 | 3.22 ± 0.049 | 3.27 ± 0.097 |
| LKSIESLKLENSDLEGK [SMC2] | 3.07 ± 0.13 | 2.8 ± 0.099 | 3.39 ± 0.17 | 2.99 ± 0.12 |
| ISENTFPNGFKNFENGP [RPC34] | 2.96 ± 0.081 | 3.03 ± 0.069 | 2.91 ± 0.052 | 2.57 ± 0.034 |
| LDPSLRAPIYHSKFRSS [YML031W/NDC1] | 2.02 ± 0.093 | 2.34 ± 0.064 | 1.71 ± 0.25 | 2.35 ± 0.072 |
| IAIAGTGQIEGLLDYMR [COR1] | 3.37 ± 0.088 | 3.54 ± 0.081 | 3.17 ± 0.061 | 3.15 ± 0.057 |
| FSFGKSDAAKEPPGSNT [YOR098C/NUP1] |  | 3.58 ± 0.16 | 2.84 ± 0.13 | 2.68 ± 0.2 |
| QFMKRFPMPYENEEFIT [ECM29] | 2.88 ± 0.062 | 2.83 ± 0.094 | 2.85 ± 0.083 |  |
| MAQNKTHIPQTNLKNHP [YLR018C/POM34] | 3.12 ± 0.082 | 2.98 ± 0.057 | 2.75 ± 0.058 | 2.85 ± 0.04 |
| NLLPKKSAKATKASQEL [HTA1] | 2.93 ± 0.1 | 3.09 ± 0.12 | 3.17 ± 0.069 | 3.03 ± 0.088 |
| SNASRRKLINYTKKHLS [RPN4] | 1.73 ± 0.071 | 1.27 ± 0.056 | 1.56 ± 0.097 | 1.34 ± 0.042 |
| SAAASESDVAKQLASFG [RPL16B] | 2.76 ± 0.048 | 2.83 ± 0.042 | 2.44 ± 0.057 | 2.42 ± 0.027 |
| PTSPNYSPTSPSYSPTS [RPO21] | 2.78 ± 0.034 | 2.9 ± 0.031 | 3.064 ± 0.026 | 2.969 ± 0.026 |
| NLKEYNKFMSIFLKRKD [SRB8] | 1.64 ± 0.06 | 2.22 ± 0.12 | 2.83 ± 0.078 | 1.88 ± 0.096 |
| EDYELSPQAVSSFVRQE [PRE1] | 2.29 ± 0.14 | 2.42 ± 0.15 | 2.31 ± 0.093 | 2.53 ± 0.083 |
| MPSRFTKTRKHRGHVSA [RPL28] | 1.92 ± 0.06 | 2.19 ± 0.062 | 2.09 ± 0.12 | 2.39 ± 0.062 |

| Sequence | protein stability index (doa10∆) | protein stability index (pdr5∆) | protein stability index (san1∆) | protein stability index (ubr1∆) |
| --- | --- | --- | --- | --- |
| KTRNPLTHSTPKNFGIG [RPL8A] | 3.02 ± 0.084 | 2.9 ± 0.058 | 2.95 ± 0.046 | 3.07 ± 0.054 |
| LLKHPFKAIHGSQLRLS [YCS4] | 1.67 ± 0.046 | 1.62 ± 0.043 | 1.64 ± 0.072 | 1.83 ± 0.025 |
| GQRTAYHSKRDASTPLR [RPB2] | 3.32 ± 0.092 | 3.1 ± 0.11 | 3.12 ± 0.066 | 3.25 ± 0.071 |
| FYSTNSQYFKFKNDFNS [RPN9] | 2.1 ± 0.067 | 2.11 ± 0.054 | 2.1 ± 0.094 | 2.5 ± 0.053 |
| IGHLIKTRFKGSQFIVV [SMC2] | 3.5 ± 0.12 | 3.05 ± 0.084 | 3.38 ± 0.087 | 3.14 ± 0.08 |
| QQLNKQRQDFERVRLRP [SNF6] | 2.85 ± 0.062 | 2.73 ± 0.079 | 2.75 ± 0.069 | 2.79 ± 0.045 |
| CQLQNSDNSEEEEVDID [RRP43] | 3.2 ± 0.077 | 3.22 ± 0.065 | 3.02 ± 0.08 | 3.13 ± 0.056 |
| PLINRLKHYNGYDINYI [SWI1] | 2.41 ± 0.068 | 2.57 ± 0.051 | 2.76 ± 0.065 | 2.69 ± 0.043 |
| AEEQTKLQSQSLHTKNV [YLR018C/POM34] | 3.29 ± 0.058 | 3.44 ± 0.063 | 3.1 ± 0.071 | 3.13 ± 0.049 |
| SNDKFVHVQLLINLKIS [SRB8] | 1.51 ± 0.042 | 1.82 ± 0.045 | 1.6 ± 0.064 | 1.61 ± 0.034 |
| GEDFMEVDYEDKDNPVD [SRB4] | 3.56 ± 0.12 | 2.96 ± 0.24 | 3.46 ± 0.15 | 3.32 ± 0.17 |
| PSTAIHTSPHQPSDVKP [SIR4] | 2.81 ± 0.052 | 2.95 ± 0.049 | 2.76 ± 0.046 | 2.36 ± 0.034 |
| QDREITNWARTTFRNEY [MED8] | 2.49 ± 0.09 | 2.07 ± 0.083 | 2.47 ± 0.092 | 2.51 ± 0.096 |
| SHFSLDQFITSLKCTDP [ITC1] | 2.09 ± 0.073 | 2.42 ± 0.079 | 2.35 ± 0.076 | 2.12 ± 0.1 |
| FPRNGKAPEAEQVLSAA [RPL13A] | 3.14 ± 0.098 | 2.76 ± 0.093 | 3.13 ± 0.1 | 2.77 ± 0.05 |
| DLFGDSNKSNSTNESNK [SSN2] | 3.2 ± 0.078 | 3.3 ± 0.08 | 3.07 ± 0.064 | 3.29 ± 0.058 |
| KERIVRAFLIEEQKIVK [RPL34B] |  |  |  | 2.74 ± 0.12 |
| NTNNNNNPANNTNNNNS [SWI1] | 3.06 ± 0.033 | 3 ± 0.03 | 3.344 ± 0.026 | 3.435 ± 0.026 |
| QDLILDLKKKLNSLKDE [SMC4] | 2.39 ± 0.083 | 2.82 ± 0.2 | 2.01 ± 0.076 | 1.57 ± 0.062 |
| SPSYSPTSPSYSPTSPS [RPO21] | 2 ± 0.032 | 2.33 ± 0.03 | 2.06 ± 0.034 | 2.1 ± 0.025 |
| KVIEEQLKHTKLALAEN [SMC4] | 1.89 ± 0.12 | 1.78 ± 0.1 | 1.32 ± 0.15 | 2.23 ± 0.098 |
| TYPAGFMDVITLDATNE [RPS4A] | 2.71 ± 0.085 | 3.11 ± 0.086 | 3.11 ± 0.062 | 2.95 ± 0.063 |
| AQAWINLGEYYAQIGDK [RPN7] | 2.41 ± 0.11 | 2.77 ± 0.1 | 2.8 ± 0.11 | 2.76 ± 0.12 |
| AEDLTIAAKTHILRISF [SIN4] | 2.36 ± 0.12 | 3.02 ± 0.09 | 2.85 ± 0.085 |  |
| DKSTKTAEAPTLSFNFS [YOR098C/NUP1] | 3.27 ± 0.076 | 3.29 ± 0.083 | 3.24 ± 0.051 | 3.23 ± 0.084 |
| LKTEKIFKEINEHSTSY [FAS1] | 3.29 ± 0.22 | 3.48 ± 0.2 |  |  |
| KALAIFVPVPSLAGFHK [RPS7A] | 2.29 ± 0.051 | 1.93 ± 0.04 | 1.77 ± 0.069 | 1.85 ± 0.039 |
